Measurements: article PMC3764422, “A model of yeast glycolysis based on a consistent kinetic characterisation of all its enzymes” (Febs Letters, 2013)

Assays:
Assay in all cases: purified protein
Type in all cases: biochemical, Saccharomyces cerevisiae
purified protein [1] = substrate: C=C(OP(=O)(O)O)C(=O)O; settings: standardised reaction buffer, 30 °C, co-substrate ADP
purified protein [2] = substrate: O=C(CO)COP(=O)(O)O; settings: standardised reaction buffer, 30 °C, measured in-house, also reported in Mendes et al. [42]
purified protein [3] = substrate: CC=O; settings: standardised reaction buffer, 30 °C, co-substrate NADH

B1: Cdc19p (Saccharomyces cerevisiae S288C) (protein)
chain: SRLERLTSLNVVAGSDLRRTSIIGTIGPKTNNPETLVALRKAGLNIVRMNFSHGSYEYHKSVIDNARKSEELYPGRPLAIALDTKGPEIRTGTTTNDVDYPIPPNHEMIFTTDDKYAKACDDKIMYVDYKNITKVISAGRIIYVDDGVLSFQVLEVVDDKTLKVKALNAGKICSHKGVNLPGTDVDLPALSEKDKEDLRFGVKNGVHMVFASFIRTANDVLTIREVLGEQGKDVKIIVKIENQQGVNNFDEILKVTDGVMVARGDLGIEIPAPEVLAVQKKLIAKSNLAGKPVICATQMLESMTYNPRPTRAEVSDVGNAILDGADCVMLSGETAKGNYPINAVTTMAETAVIAEQAIAYLPNYDDMRNCTPKPTSTTETVAASAVAAVFEQKAKAIIVLSTSGTTPRLVSKYRPNCPIILVTRCPRAARFSHLYRGVFPFVFEKEPVSDWTDDVEARINFGIEKAKEFGILKKGDTYVSIQGFKAGAGHSNTLQVSTV
notes: tagged full-length ORF, expressed in and purified from S. cerevisiae
Km (purified protein [1]): 0.281 (SEM 12%) mM | kcat (purified protein [1]): 20.1 s⁻¹

B2: Tpi1p (Saccharomyces cerevisiae S288C) (protein)
chain: ARTFFVGGNFKLNGSKQSIKEIVERLNTASIPENVEVVICPPATYLDYSVSLVKKPQVTVGAQNAYLKASGAFTGENSVDQIKDVGAKWVILGHSERRSYFHEDDKFIADKTKFALGQGVGVILCIGETLEEKKAGKTLDVVERQLNAVLEEVKDWTNVVVAYEPVWAIGTGLAATPEDAQDIHASIRKFLASKLGDKAASELRILYGGSANGSNAVTFKDKADVDGFLVGGASLKPEFVDIINSRN
notes: as for B1
Km (purified protein [2]): 6.45 (SEM 5%) mM

B3: Adh1p (Saccharomyces cerevisiae S288C) (protein)
chain: SIPETQKGVIFYESHGKLEYKDIPVPKPKANELLINVKYSGVCHTDLHAWHGDWPLPVKLPLVGGHEGAGVVVGMGENVKGWKIGDYAGIKWLNGSCMACEYCELGNESNCPHADLSGYTHDGSFQQYATADAVQAAHIPQGTDLAQVAPILCAGITVYKALKSANLMAGHWVAISGAAGGLGSLAVQYAKAMGYRVLGIDGGEGKEELFRSIGGEVFIDFTKEKDIVGAVLKATDGGAHGVINVSVSEAAIEASTRYVRANGTTVLVGMPAGAKCCSDVFNQVVKSISIVGSYVGNRADTREALDFFARGLVKSPIKVVGLSTLPEIYEKMEKGQIVGRYVVDTSK
notes: as for B1
Km (purified protein [3]): 0.462 (SEM 5.3%) mM | kcat (purified protein [3]): 176 s⁻¹
